According to a protein production outcome set (Wang et al. 2014):

Assay: label from the status in PepcDB records

Sequence	protein production
MRAVLTWRDKAEHCINDIAFKPDGTQLILAAGSRLLVYDTSDGTLLQPLKGHKDTVYCVAYAKDGLWSPEQKSVSKHKSSSKIICCSWTNDGQYLALGMFNGIISIRNKNGEEKVKIERPGGSLSPIWSICWNPSREERNDILAVADWGQKVSFYQLSGKQIGKDRALNFDPCCISYFTKGEYILLGGSDKQVSLFTKDGVRLGTVGEQNSWVWTCQAKPDSNYVVVGCQDGTISFYQLIFSTVHGLYKDRYAYRDSMTDVIVQHLITEQKVRIKCKELVKKIAIYRNRLAIQLPEKILIYELYSEDLSDMHYRVKEKIIKKFECNLLVVCANHIILCQEKRLQCLSFSGVKEREWQMESLIRYIKVIGGPPGREGLLVGLKNGQILKIFVDNLFAIVLLKQATAVRCLDMSASRKKLAVVDENDTCLVYDIDTKELLFQEPNANSVAWNTQCEDMLCFSGGGYLNIKASTFPVHRQKLQGFVVGYNGSKIFCLHVFSISAVEVPQSAPMYQYLDRKLFKEAYQIACLGVTDTDWRELAMEALEGLDFETAKKAFIRVQDLRYLELISSIEERKKRGETNNDLFLADVFSYQGKFHEAAKLYKRSGHENLALEMYTDLCMFEYAKDFLGSGDPKETKMLITKQADWARNIKEPKAAVEMYISAGEHVKAIEICGDHGWVDMLIDIARKLDKAEREPLLLCATYLKKLDSPGYAAETYLKMGDLKSLVQLHVETQRWDEAFALGEKHPEFKDDIYMPYAQWLAENDRFEEAQKAFHKAGRQREAVQVLEQLTNNAVAESRFNDAAYYYWMLSMQCLDIAQADPAQKDTMLGKFYHFQRLAELYHGYHAIHRHTEDPFSVHRPETLFNISRFLLHSLPKDTPSGISKVKILFTLAKQSKALGAYRLARHAYDKLRGLYIPARFQKSIELGTLTIRAKPFHDSEELVPLCYRCSTNNPLLNNLGNVCINCRQPFIFSASSYDVLHLVEFYLEEGITDEEAISLIDLEVLRPKRDDRQLEIANNSSQILRLVETKDSIGDEDPFTAKLSFEQGGSEFVPVVVSRLVLRSMSRRDVLIKRWPPPLRWQYFRSLLPDASITMCPSCFQMFHSEDYELLVLQHGCCPYCRRCKDDPGP	failed
MNKALIVILSTVALDAIGAGLIFPILPDILVEVTGGGDIGFLYGVMLGVFAVMQFVFSPILGALSDRFGRRPVLLLSLAGTLLDYLVMAFSPLGWVLVVGRAMAGITSANMAVASAYITDITPAEQRAQRFGTVGAVMSLGFIIGPVIGGVIGAWWLRAPFLVAALFNGLNLFVALFVLPESRKAGPGKFAFKELNPLAPLVWLWNFKPLLPLVTVSVVFGLVAAIPGTIWVLYGAERFGWDSVHMGLSLSVFGVSGALAQAFLVGPLSRRFGDLGTLMIGVGFDMLAYMLMAFANQSWMGYAVAPLFALGGVAMPALQSLVTSRVSDDQQGQLQGVLASLMSLAGIIGPVLTTAVFFSTKSIWIGTIWLVGAALYLLALPLFATVKTPKAVAA	failed
MSELDVEAVDDINAPAGIDAAEYVLYGGKGGVGKTTCAAATALASARDDTATLVVSTDPAHSLSDTLDADIPATPTRIREDIPLYAAEIDPEAAVGEGPLGVEEDALGGVGELLGGDGMFGGGAGGAAGAGQAEDPIGGEEGLLGGSMPGADEAAALRLLLDYVDDDRFDRVVIDTAPTGHTLRLLELPETMDSMVGKILQLRERFSGMMDNLTGMFGDDQDVDAEAGIEDLQELSDRIEHLRGILQDPQRTDFRIVMVPEELSVVESERLLAQLGEFNIPVSTVVVNRVMQDPSEVLGEDVDIAGPNHADCEFCARRWQVQQDALARSQDMFRGHDVRRVPLFAEEVRGERLLSVVAACLD	failed
MGSVQLSGSGLVASLPPNHSFSHKTKLNKPNSYFFRSKHNAARTKTVRAISTAPASQPPAADEPDEPPAVDFAFVHSVLLPDGTPDVHWRRANGGQKLRDIMLDSNIELYGPYSKPLSNCAGVGTCATCMVEIVNGKELLNPRTDIEKEKLKRKPKNWRLACQTNVGNPDSTGLVVIQQLPEWKAHEWNIPKNIPNDDDLETST	failed
MTKNPRTLYEKIWDAHIVERREDGSALIYIDRHLVHEVTSPQAFEALRQAGRPLRRPDRTLAVPDHNVPTTARVDSEGHLLPIADPQSAKQLAALAKNAPEFGVRYISATDPEQGIVHVVGPEQGFTLPGTTLVCGDSHTAAHGALGALAFGIGTSEVEHVMATQTLILTPAKTMEVRVEGKLSPDVSAKDLILHIIHSLGTAGGTGYAIEYTGEAIRNLSIEERLTVSNMSIEAGARTGLIAADEKTFAYLFGRPMAPKGADWEKAVQWWKSLATDKGAVYDKTVIIKAEDVQPSVTWGTSPEDVVPITGVVPDPASFADPAKQAAARRSLEYMGLEPGQKMEGLAVENVFIGSCTNSRIEDLRAAASVVWGRHVADNVKQALVVPGSGLVKRQAEAEGLDEVFKAAGFEWREPGCSMCLAMNPDKVPAGERCASTSNRNFVGRQGPGARTHLVSPAMAAAAAVTGHLTDLRHLEPVKMGEKA	failed
MCAADHSREQVMRIGEVASRAGVSVRSVRYYEDQGLLASTRSAGGQRQYTEHEVERVQFLQRLYAAGLSSRTIAELLPCVDAPSEVHSDAALERMAQERDRLTEHIADLVRTRDALNALMTAAREYRDAQFA	failed
MTIKEFIKKSRLKTWDVIIIAILVLGSFLPLVVFAMQNRGQEAATYQAVLKVDNKVIKVFDLKKDGPHYTYKYEAKDGDYNLIEVDGDRIRVKEANCADLVDVRRGWISKPGETPIACLPHNLFITVEASDGSEDGSLIY	failed
MSDKYYRSAYMNVDLNAVASNFKVFSTLHPNKTVMAVVKANAYGLGSVKVARHLMENGATFFAVATLDEAIELRMHGITAKILVLGVLPAKDIDKAIQHRVALTVPSKQWLKEAIKNISGEQEKKLWLHIKLDTGMGRLGIKDTKTYQEVIEIIQQYEQLVFEGVFTHFACADEPGDMTTEQYQRFKDMVNEAIKPEYIHCQNSAGSLLMDCQFCNAIRPGISLYGYYPSEYVQQKVKVHLKPSVQLIANVVQTKTLQAGESVSYGATYTATDPTTIALLPIGYADGYLRIMQGSFVNVNGHQCEVIGRVCMDQTIVKVPDQVKAGDSVILIDNHRESPQSVEVVAEKQHTINYEVLCNLSRRLPRIYHDGDQRFVTNELLK	not failed
MMNIRSKYAVYIFPLLLILFFVGTASALPTVAHDRVQGEMYVASTANWDSHYSTNSFDVPNGTVVFARYYVGVWASGTPSSISATFNGHAFETNPSYYISGMGVTWIPFNVTDYVQPGETNTATIDSSHWGDGRQYGSTLVVVLENENKPEVEYWIAEGLDWVIGYGSSTTYFNDTNIDLDDVDSASLYSTILTGYSSESLNGESLSGAVDSVSGAYFNYIRWDNVKDSLTAENQTIKVVGDGDYTSAVLHGLSITYKIPDLVPTSLTPSYVTPGTVNTMTATIENTDKDSPSFNVSLIADGTVVDTQDVSGIAAGGSTTVDLQWTPEGGKDSYSLTVVVDPDNSVVESEETNNELTVLVGSASVEVPVANFTAVPTSGSIPLTVNFTDQSTNSPTSWFWDFGDGENSTSQNPSHTYTSVGNHTVSLTVTNAEGSDSEVKTDYITVEVITPVAAFTADNTSGAAPFTVQFTDQSANLPAEWFWDFGDGTNSTEQNPAHTYITAGKYTVKLTTANAAGNDSEEKTDYITAYIPPVANFTATPTSGGAPLTVTFTDTSTNMPTEWLWDFGDGVNSTDQNPIHTYTSAGNYTVSFTATNSGGSDSELKTAYITVTAEAGKGGLADTAWPKFHYDLGNTGQSPYTGPQTANVVWTYTTTGEMRLGQGAVIGSDGTMYIGDRSGTLYAINPNGTLKWGTSIGTKSFPTPAIASDGTIYAGGNDKIVYAINPDGSIKWSYPVGTKSVISSPAIASDGTIYFATSTNLFALKPDGTLKWNSAVSYGGYNYFSPAIGSDGTIYLGTYGGALSAINADGTLKWTYSIPAPNNYIYDTPAIASDGTIYFGCNNANLYALNPDGTLKWTYSVGTSASQAIKSSPAIGSDGTIYFGSNNQYFYALYPDGTLKWSSKAGSFGQTTPTIGSDGTIYIDNYGSKTLYAFNPDGTVKWSYADGNYNYASPAIASDGTLYFGKGYTVYAFRDVAPVSNFTADPTSGTAPLTVNFTDQSTGSPTSWFWDFGDGANSTEQNPVHTYSVAGNYTTNLTVTNSAGTDFEVKTDYITVLEPSTPEPEPVAAFTADVTSGSAPLTVNFTDQSTGSPTSWLWDFGDGTNSTEQNPVHTYASAGSYTVNLTVENDAGSDFELKTDYIEVSEISGSTVTLYFDPESSSVAENESTEISLVASNFPAGLSGYNLTVAIDDPAVAEIVGIEYPTWALITENSTLPGTSIYMKTVDLEDSIKEEEGEVVLATLTVSGKEKGSANISIGVKRLEDDSGDSIEPALLTGTIEVTILSLLPDQEYAPKDLDGDGLYEDLTGNGEFSFVDIVAYFHNMDWIEENMPVEYFDFNGNGRIDFDDVVDMFAMI	failed
QSQGGGSVTKKRKLESSESRSSFSQHARTSGRVAVEEVDEEGKFVRLRNKSNEDQSMGNWQIRRQNGDDPLMTYRFPPKFTLKAGQVVTIWASGAGATHSPPTDLVWKAQNTWGCGSSLRTALINSTGEEVAMRKLVR	not failed
MVPDYFSASEWTIIADVLGANSRHLFELYALKQSNHYQSLMGSKAGTFEDIVDAYLAYLQVAVVNPAMDKALLRLQRYATDVRKGSIPYEKLRFGASWRHPPQTEDPTQNSEWAKIQLMDFVQALVNTEFAVGILYTQRDPSFFRPISQGIKRCLVRWNVDEISVSCARTHVGLRFYREVENIKGRCFCCRQGLTFSKITLRRDVGGKNLQLQNGVIVTTDRSSLQRLKQKPDLIYGIWERPHGFNLRSVQENNEHNN	failed
MRVGIKVLGCPKNEADCEVLAGVLREGGHEIVFDVKDADVVVLDTCAFIEDAKRESIDEIFSFVDAKDQYGYKLVVKGCLVQRYYEELKKEIPEVDQWIGVADPEEIANAIENGTDLVPDQPETVYRYRKRIDLEERPYAYVKISDGCDRGCTFCSIPSFKGSLRSRSIEDITREVEDLLKEGKKEIILVAQDTTSYGIDLYRKQALPDLLRRLNSLNGEFWIRVMYLHPDHLTEEIISAMLELDKVVKYFDVPVQHGSDKILKLMGRTKSSEELKKMLSSIRERFPDAVLRTSIIVGFPGETEEDFEELKQFVEEIQFDKLGAFVYSDEEGTVAFNLKEKVDPEMAKRRQEELLLLQAEISNSRLDRFVGKKLKFLVEGKEGKFLVGRTWTEAPEVDGVVFVRGKGKIGDFLEVVIKEHDEYDMWGSVILEHHHHHH	not failed
MLKEKAGVIAGTIWNALNETEGMTAKQLKKATKLVDKDLFLGLGWLLREDKVSVEEVEGELFIKLI	failed
QAQITGRPEWIWLALGTALMGLGTLYFLVKGMGVSDPDAKKFYAITTLVPAIAFTMYLSMLLGYGLTMVPFGGEQNPIYWARYADWLFTTPLLLLDLALLVDADQGTILALVGADGIMIGTGLVGALTKVYSYRFVWWAISTAAMLYILYVLFFGFTSKAESMRPEVASTFKVLRNVTVVLWSAYPVVWLIGSEGAGIVPLNIETLLFMVLDVSAKVGFGLILLRSRAIFGEAEAPEPSAGDGAAATS	not failed
AASSRSWKSWFIEQYFWLKRDKSYYSKQDDPSFQRYLDACREQSDKPYQLDTNLVNGPLVQENLYGMQVYSWNDNGKPDQKTIIYLAGGSYLNNPTTYHINMLKTLSTSLDAKIVLPIYPKAPRYTYNYTMPKLVNLYQHYYHKNQNVFLMGDSAGGGLALGLAHALHNESVPQPKQLVLLSPWLDVTMSHPEIPEYEDADPILSSWGLKRVGELWAYSADNTNHIYVSPKNGPITYLPPITLFTGTREIFYPDIRDYAAKLKAANHNITFITQEGMNHVYPIYPIEEAKTAQYQIIDAINKT	failed
KMPSPYSHKEFVKEIAPTAQKLSKIYGVRSSIIIGQAALDSHFGSTLLASKYHNLFSIEASPGQGAVRLKSHEYKNGRWQEVTNRYLVYESWKESLYDYMAILHGNKIWDKALYTTMMTSSGYKTVARALQAAGFNSDPNYADKLIAVIEENNL	not failed
